Source: patent publication EP1214598B1
No end group written: not given here.

Target: PHF43 (tau fragment generated by GluC digestion of K19, 43 residues) (human)
Assay: disulfide dimerization via Cys322, after reverse phase HPLC

dimer fraction: 100%
B1: PHF43 (tau fragment generated by GluC digestion of K19, 43 residues) (peptide)
peptide: NLKHQPGGGKVQIVYKPVDLSKVTSKCGSLGNIHHKPGGGQVE
modifications: also: dimer via Cys322-Cys322 disulfide (without DTT)
